Measurements as given in the supplement of paper PMC12764529.
± gives the half width of the 95% confidence interval.

Assays:
[1] = folding stability dG unfold from trypsin proteolysis; higher = more stable
Summary of the method: (§1)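 Sequencing followed digestion of designed mini-proteins with trypsin and chymotrypsin, each at 11 concentrations in threefold dilutions together with a no-protease condition. The mini-proteins were under 80 residues, had no cysteine, sat in a PA-tagged cDNA display construct, and were kept only if AlphaFold2 dimer inter-PAE was above 15. From the counts, Bayesian fitting gave K50, and unfolding free energy was derived against a sequence-predicted unfolded-state K50 and a shared folded-state K50, per protease or combined.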

[2] = folding stability dG unfold from chymotrypsin proteolysis; higher = more stable
Summary of the method: as §1

[3] = folding stability dG unfold (combined trypsin and chymotrypsin); higher = more stable
Summary of the method: as §1

SAGGSAGGSKPGKPREIMIPFPDNWFMSIRVWPGRIEIENPDNGKEFEIPIGAPIEIELFPLDSAGGSAGGS [r12_227_TrROS]
folding stability dG unfold [1]: 1.98 ± 0.035 kcal/mol | folding stability dG unfold [2]: 1.81 ± 0.095 kcal/mol | folding stability dG unfold [3]: 1.89 ± 0.17 kcal/mol

SAGGSAGGSKKVKEVTITVKNKDGKTVKITKIYKKKDGSKYVLIKDKKTKKTYKISLEDLKKLSAGGSAGGS [r12_488_TrROS_Hall]
folding stability dG unfold [1]: 1.11 ± 0.05 kcal/mol | folding stability dG unfold [2]: 2.29 ± 0.076 kcal/mol | folding stability dG unfold [3]: 1.8 ± 0.14 kcal/mol

SMLYRVTTVVVRGDRPLVIPVLADSLEAFLEEAREAIPPELREELPPDAVVRVFVEPVPAVVPEPGEPLPSA [r9_111_TrMRF]
folding stability dG unfold [1]: 1.42 ± 0.057 kcal/mol | folding stability dG unfold [2]: 2.03 ± 0.069 kcal/mol | folding stability dG unfold [3]: 1.77 ± 0.25 kcal/mol

SAGGSAGGSAGGKKKYIVVKVKVEVDENGNVTITLPNGKKITIPKEKVEVKPDGYLVIKLSAGGSAGGSAGG [r7_684_TrROS_Hall]
folding stability dG unfold [1]: 1.98 ± 0.07 kcal/mol | folding stability dG unfold [2]: 2.05 ± 0.028 kcal/mol | folding stability dG unfold [3]: 2.05 ± 0.087 kcal/mol

SMDPGDPILITIKIPPVPVYRYKRDPDGNPKGYEPVPMPSQELVIIIPANDLEKLLDLLQPFGLDVEIIPSA [r9_167_TrROS]
folding stability dG unfold [1]: 1.58 ± 0.071 kcal/mol | folding stability dG unfold [2]: 2.44 ± 0.083 kcal/mol | folding stability dG unfold [3]: 2.08 ± 0.13 kcal/mol

SAGGSAGGSAGGPKTVRIVEYDPETQRVVIELEDGSKVVIEVPPGMSVEELKGKTLTVEPSAGGSAGGSAGG [r7_296_TrROS_Hall]
folding stability dG unfold [1]: 1.79 ± 0.051 kcal/mol | folding stability dG unfold [2]: 0.569 ± 0.1 kcal/mol | folding stability dG unfold [3]: 1.14 ± 0.17 kcal/mol

SAGGSAPKEGTIWIMIPVRYERDPNGKVKPISAEQIADLFQELGFPIKIDEIFDSPGYIMIRIKVKSAGGSA [r15_225_TrROS]
folding stability dG unfold [1]: 2.5 ± 0.075 kcal/mol | folding stability dG unfold [2]: 3.204 ± 0.032 kcal/mol | folding stability dG unfold [3]: 3.04 ± 0.16 kcal/mol

SAGKKPKVIEKTITIKVYDKKTKKEYEIKIKVRVVKKDGKVIEEFSEEEAKELAKKLAEELKKNKNIKPSAG [r5_426_TrROS_Hall]
folding stability dG unfold [1]: 1.81 ± 0.097 kcal/mol | folding stability dG unfold [2]: 2.44 ± 0.04 kcal/mol | folding stability dG unfold [3]: 2.22 ± 0.14 kcal/mol

SAGGSAGGSAGKQPIEMWFMFPNGVAIVLRIKVDPPSPKAKIDAIEVVPVRDPDNGKWRFSAGGSAGGSAGG [r11_919_TrROS]
folding stability dG unfold [1]: 0.566 ± 0.11 kcal/mol | folding stability dG unfold [2]: 1.85 ± 0.1 kcal/mol | folding stability dG unfold [3]: 1.38 ± 0.14 kcal/mol

SAGGSAGGSAGPIDPNSTRPVPADYVVIRIRGDEKPRYFVVHPEYAKEFAERHGAELYYESAGGSAGGSAGG [r17_109_TrMRF]
folding stability dG unfold [1]: 0.0223 ± 0.14 kcal/mol | folding stability dG unfold [2]: 0.582 ± 0.082 kcal/mol | folding stability dG unfold [3]: 0.44 ± 0.076 kcal/mol

SAGMDLKIEEEEDPLSGSRLFRIELRDPDGKYNLTVVVLKENGKIKAVLVLRENTGEPLTLPELVELLESAG [r5_872_TrMRF]
folding stability dG unfold [1]: 2.83 ± 0.19 kcal/mol | folding stability dG unfold [2]: 3.773 ± 0.017 kcal/mol | folding stability dG unfold [3]: 3.43 ± 0.086 kcal/mol

SAGGSAGGSAGKMLLIEIEVDGKKYLIEIEVPEGEEITPEELAKLLGIPNVKVKVYELEESAGGSAGGSAGG [r11_219_TrROS_Hall]
folding stability dG unfold [1]: 2.47 ± 0.065 kcal/mol | folding stability dG unfold [2]: 3.41 ± 0.04 kcal/mol | folding stability dG unfold [3]: 3.11 ± 0.13 kcal/mol

SAGGSAGGMVFENLSEEEAKIIAKNIAENFKKKYPNVKIKVEAEVYKLPNPKVIVVIKLEIEEESAGGSAGG [r6_787_TrMRF]
folding stability dG unfold [1]: 2.55 ± 0.086 kcal/mol | folding stability dG unfold [2]: 3.54 ± 0.07 kcal/mol | folding stability dG unfold [3]: 3.09 ± 0.15 kcal/mol

SAGMTLVAVNRETGEVNVIELDPEDPELVTVTYPNGEKETFPLAEIAERLGLPVSLLLNDYDIERIYGSSAG [r5_156_TrMRF]
folding stability dG unfold [1]: 1.95 ± 0.086 kcal/mol | folding stability dG unfold [2]: 1.38 ± 0.057 kcal/mol | folding stability dG unfold [3]: 1.71 ± 0.084 kcal/mol

SAKAELEIKFPGWKVTVEIEDVDPKNDMVKLKAFFRNGWVFTQTVNPDDGKIEIPIIPVKPDPDGKWKFSAG [r14_466_TrROS]
folding stability dG unfold [1]: 1.21 ± 0.032 kcal/mol | folding stability dG unfold [2]: 1.38 ± 0.096 kcal/mol | folding stability dG unfold [3]: 1.35 ± 0.091 kcal/mol

SAEVRTVTDANGTQRTVTKTPDGTETVTTRPVPAPPPPPTVTVEVEYDAENGTLTVRLPDGSKLEFTFEDSA [r9_56_TrROS_Hall]
folding stability dG unfold [1]: -0.118 ± 0.23 kcal/mol | folding stability dG unfold [2]: 0.982 ± 0.046 kcal/mol | folding stability dG unfold [3]: 0.742 ± 0.26 kcal/mol

SAGGIWIPIDRIREALKDGMPLDEIVDKLRKHGFPIDRITGIEPSPNSWTIEIEFPEQGMPIEIQISSAGGS [r8_179_TrROS]
folding stability dG unfold [1]: 1.93 ± 0.052 kcal/mol | folding stability dG unfold [2]: 1.66 ± 0.035 kcal/mol | folding stability dG unfold [3]: 1.9 ± 0.085 kcal/mol

SAGDGDKMRGEHEREDPNGKKREVTHEMKVQPPPVPKPKIELPADDIDEIDPDNGTLRNPGNGKPFPIGSAG [r5_807_TrROS]
folding stability dG unfold [1]: 0.0244 ± 0.15 kcal/mol | folding stability dG unfold [2]: -0.465 ± 0.17 kcal/mol | folding stability dG unfold [3]: -0.31 ± 0.41 kcal/mol

SAGSVEVSVSGNEIHITAPEGISLEELIELIKKLFPGADIGEVSVEKLPDGRYVATFKAGFKPPSPDELSAG [r5_110_TrMRF]
folding stability dG unfold [1]: 4.41 ± 0.25 kcal/mol | folding stability dG unfold [2]: 4.29 ± 0.14 kcal/mol | folding stability dG unfold [3]: 4.34 ± 0.12 kcal/mol

SAGGSGMIKTETTVTITFPGGETVSFPATVTYDPETGKTEVEVNLPEAALAELKERAPDAEVNVLLSAGGSA [r2_409_JUSTAS]
folding stability dG unfold [1]: 1.76 ± 0.032 kcal/mol | folding stability dG unfold [2]: 0.681 ± 0.014 kcal/mol | folding stability dG unfold [3]: 1.29 ± 0.046 kcal/mol

SAGGSMPTLKPDEILTLSSTTEPLPSGGLRGRTVTLKKIPGTGKFVTITKYSYQPPDGPITSATEILLSAGG [r13_263_JUSTAS]
folding stability dG unfold [1]: -0.538 ± 0.48 kcal/mol | folding stability dG unfold [2]: 0.585 ± 0.26 kcal/mol | folding stability dG unfold [3]: 0.238 ± 0.15 kcal/mol
